Laboratory results reported in the DeepSol protein solubility set.

experiment: soluble on expression in E. coli; label from the status in PepcDB or PDB records

Soluble on expression in E. coli, not soluble:
MGSDKIHHHHHHMNKRNLLIAIPALCSGYLHGQTQPASPNVIYILMDDLGYGDIGCFGQDKIETPHIDRLCSEGIKLTQHYSGSPVSAPARCVLMTGMHSGHAQIRFNNELAERGAVNNYDSVYVHKELEGQFPLQANTMTIGRMMQQAGYTTGCFGKWGLGYPGSEGTPNKQGFDRFYGYNCQRQSHTYYPPFLYNDEERVYLSNKVTDPHRSPLDKGADPNDPASYAKYTQKEYANDLIFDELMGFVDANKRKPFFLMWTTPLPHVSLQAPERWVQHYVKKFGDEKPYTGQAGYLPCRYPHATYAAMISYFDEQIGQLIEKLKAEHLYENTLIVFTSDNGPTFNGGSDSPWFNSGGLFNSAYGWGKCFLHEGGIRVPAIITWPGKIKPGTQSDHICAFQDVMPTLAELAGITCPPTDGISFLPTLLGKKGKQKEHTYLYWEYPDPRIGNKAIRMGKWKGIITDIRKGNTQMQLYNLETDIREEHDVAAQHPDIVKRFERLMKEARNGPDF
MGSDKIHHHHHHMNLAGAQLTENELMRLTVSNIAQATSLPALIQEHGRWCCQRCGDRKPVQLPDGRFYCSACVSLGCLTNRDLLYRFEQPHRPVGDGLLTWHGTLTPAQQKASTALQTSVTAGADHLIWAVTGAGKTEMLFPTISQMVQQGKRVAIVSPRIDVIRELAPRLRTAFATTPIAVRYGGHFDQTDSDLVLATVHQLLRFHRAFDLIVVDEVDAFPMAGTPMLHRAVQGARRGPVVYLTATPDRPLKAAMRKGLMVSRLFRRFHGHPLPVPAIRLMNFKKLPSQLPPAIVKWVRDVVATGRSCLLFVPKISWAPQIAALVQRNGLRVAGVASTDRLRAEKITAFRQRQIQVLVTTTILERGVTVSKCAVGVVAAADRAFTASALVQIAGRAGRAADSADDPVVFFTDRYTLALLAAKRQIVMMNGR
MGSDKIHHHHHHMNLEEENTIFKPLYSLKHSPINAYFSKNSDDFVVRERPLYEFSGKGEHLILHINKKDLTTNEALKILSEASGVKIRDFGYAGLKDKQGSTFQYLSMPKKFESFLSNFSHPKLKILEIFTHENKLRIGHLKGNSFFIRLKKVLPSDALKLEQALMNLDKQGFANYFGYQRFGKFGDNYKEGLEILRGKKMKNVKMKEFLISAFQSELFNRYLSKRVELSHFANDFSEKELIQIYKISKEEAKELKKQEQFFKLLKGEVLGHYPFGKCFLCEDLSAELGRFKARDISAMGLLIGAKAYETGEGLALNLENEIFKDTLEFKAKMQGSRRFMWGYLEELKWRYDEEKAHFCIEFFLQKGSYATVVLEEILHKNLFE
MGSDKIHHHHHHMNLKKVVNEIRNFEGILRKIAIKDVVETFDFNDEDYEFDIIVDFGDDAAVIGIDGDNAILLAADGIWGKLLEADPWWAGYCSVLVNCKDIAAMGGKCVGMTNIISIKDKDICREVLKGVKDGVKKFGVPMVGGHTHPDAMCNVLDVSITGIAKKDCILRSDNAKIGDKIIFAYDLVGQIYKSFPLNWDTTTMKSKKLVRAQMDALVQIAENKLANSCKDISNPGAIGTLGMLLEVSRKGGVVDITKIPKPEEIDLIHWLKVYPGSGYVLTAKEENFKEIKDIFEDVEMTAEICGEVIAEKKLYITDGENKEVVFDFEKEFICGC
MGSDKIHHHHHHMNLKQITYFLAVAEAGQMTAAAKQLHMAQPPLSYQLKALEDELGVRLFERGSRGVRLTGSGQQFMTYAQQIVETVAAAENAARRSGEGEIGTLALGLTSSAGDVLPKQKLQAFNRRYPQVEFALYEDNTYGILDKLRRNILDLAIVRTPFNDDGLASCRLSSDHMIAVAAASQPLPATLTIPDLKQQPLIVYRRFSSLFKTTFAEYGITPIIAVLCDDARTALHWAQMGMGVALVPATMAALASQQSHLAVIDYEPWVTHMTLVWQPEALHNPLVARFVGQLSGGESEKYSK
MGSDKIHHHHHHMNLLSPSDPIVLSTAYLPPIQYFTKLLHPEGVLLETAENFVKQSYRNRCHIAGPEGMQPLTIPVEKSPSPKAPIRDIRISEHGNWRHLHLNALISSYGSAPFFDHYMTEIEPFYRHKYTFLWDFNLDLLSVCLEWLDISPLIMFTFEYVEDCPNDFRYSIRPKQAPEDESFRPRVYYRTFAHKYGFLPNLSIVDLIFHEGPSAIQTLKECIR
MGSDKIHHHHHHMNLPTAHPLIDEATLTIVVCHILDSKTATLGEWHSEAIAHHIINNVTAGLQRITGIANNGSEQLSWSVILKILHLQPENAGSIFNSSQDPTHWNYWQREALIYTSGMLDNLTGDLVAPRCFGITEPSANVVWLWLEDIQGSSGSTWTMERFGLAARHLGYLQGSYVMAQSLPYEPWLSRGWHRAWVSNIDNTALEAWREPAVWQHPLLKEIFSPDIGDRVMDLWSDRHILLDAVDKAPHTLCHFDITPNNLFSRHNPDGNDQTVLIDWSFVGYGVLGEDIINLVLDSVFLLFVNGSSLIPLEKLVLEGYLTGLRSAGWNGDERIVRFTYAALAALHFGLIAGRLLKLVQNESRHSWLEQRFGRTFDEIITSRAIAITHGLELADEARLLLPSLFVIN
MGSDKIHHHHHHMNLQQLAVFREVMETGSVSAAARNLGRTQPAVSASLKALEVNLGIALFEREGRRLVPVPEAHYLLSEAAEILARVNTTEMNLVGMRNRTRGSLSVVGMPGPSVYLLPDFVSRFGSKADDLKISLSTRSSPQILNLIAAQAFDVGFCDLGFCDMSAEDLNSSLYHTKTIMSDCLCALPAQHPLAGRAVIDARQLSGERMGVLAGTHSTNRDTRAAFEQAGAVFNPRVEAQYFIPLLRFVEAGQICTVLDPLSAETYKRMNGGEVGIWFARFLPSVRFGYSIVTPKQRPLSLLAQDFVDGWSDHVREIIADHS
MGSDKIHHHHHHMNLRGKMIVIKFGGSSLRSEFKSAVSLIKALSEEKDVVVVVSALKGITDLLEKYTDTFDSRYAVEVSKTYLEFGKRMGIDTSSLSPYLKQLFNPPDLPPQALRDYILSIGELLSAAMIAEKANGAVIFPWDLFVAHGSFGNGFIDIKKSKRNVKLVKEALESGKIPIIPGFIANLNGYRVTLGRGGSDYSAVALGVLLNSELVAIMSDVEGIFTADPKMIPYSLLIPYMSYDEILIASKYGMEAIQWKAAKLAKEYEALILFGRASDWRMGTVVSNSSSHMPLLSYDQGKLLVMNMDSEIPYEVVEEGEFWRVYRVPKRDSIKIIKELHRKIIYQENAQLLGRVKA
MGSDKIHHHHHHMNNKGKLAILFIDALPYFKSRNIGQILNLYRLIPGLGYSVNQHYELLYGKTPDDVGFFGEWSLGCSTKFDTIKFRFHKTIDSILWKLKLNLIRKGYRKIILRLEDMIPLGRRKYFLRKGTYAFRELAKEGFILYNTQFRGYIEELDRTLPRNEEKRMETMFNKMFNIAKNTDHPLLFTINIIDHIGHKYGPESPEYDYFLDLFAKKLLDLLIFLKENGFHVILFSDHGMSPYKAKVNLSDFEHYFGKFFGKYIVYFYDSLYFRAWIFDSFLYLEIEEFLNKLPGKILSSNDRKKFGVVHEEHGHVIFVLNEGFTFHPNYFGYSVMKGYHGYLPEFERQHGIAAFSRAFKIDNLFQGNPPKYLNSIDFSRIIKHILEANRNV
MGSDKIHHHHHHMNNLYPYGAPDSNLYARKQEEYDQQIAEAILAGIKREATAIELYRRLADEAPSEQHQHDIRQALENKQASLTQFTNAYRILTGQQPQLEVDDVSFYRFHEGLQKAYEIEVEGYEEYERSSALTENPHVQHAFWTALNTEYENTTRLYRSLHEEADHRVTDHGPRPFVVNIEDETKRNRAFRRALWTGDHLQVTLMSIQVGEDIGLEIHPHLDQFLRVEEGRGLVQMGHRQDNLHFQEEVFDDYAILIPAGTWHNVRNTGNRPLKLYSIYAPPQHPHGTVHETKAIAMAAEEHHHL
MGSDKIHHHHHHMNPADNILWGNIIKVHGVKGEVLVQVFSDDLTDYETLESVFVEIKQKQIPFFLSTFNFATQKRCILSFEDVTTVEQAKPLVGADIYIPVSKMAEADESRLSYQAIIGFEVMDTIQGKLGVISNFFQKTGQDLLMMDYQDAEILIPVTEEIVHSVDVKTKQVITTLPEGLIEIYLNEDASEPDAD
MGSDKIHHHHHHMNPNTVPPAARDVAWIKHALQTAIELEYSTLPLYLSAMFSLEVQNYTAYNAIRSIAMEEMVHMAIAANLLAALGGSPQFKPIQIAYPTTGLPGGAEPDLHVGLARYSKPQLKNFLRIETPGFLLRQLGRDEGYPTIAAFYESIRSAIARNANAVRAAVQAGGPANQVGDDIGFTTVTYKPGVDPVESFDAGIGEILQQGEGSGRGDVFAGNPFEDEESHYARFAELYYGARYQAPSPPVDFNPKNEPLFFGGPAIAAPVVVNTLAVPRDGYARILALDPERDTVESDLNAFDSGFSKILSTLDAVWNGPSSTSWKTLGAAVHGMVDLRVLSCFNIMRHAVPAAAVSQLAELYPDEIGFLRTYTDLSKPVFYGPRFVNVNGKQAS
MGSDKIHHHHHHMNQDRNKLLSKIAYLYYIENLNQSQIAAKLGIYRTSISRMLTEARNVGIVKIEIENFDTNMFKLENYVKEKYSLESLEIIPNEFDDTPTILSERISQVAAGVLRNLIDDNMKIGFSWGKSLSNLVDLIHSKSVRNVHFYPLAGGPSHIHAKYHVNTLIYEMSRKFHGECTFMNATIVQENKLLADGILQSRYFENLKNSWKDLDIAVVGIGDFSNKGKHQWLDMLTEDDFKELTKVKTVGEICCRFFDSKGKEVYENLQERTIAISLEDLKNIPQSLAVAYGDTKVSSILSVLRANLVNHLITDKNTILKVLEEDGDLTFREILGE
MGSDKIHHHHHHMNQIDRLLTIMQRLRDPENGCPWDKEQTFATIAPYTLEETYEVLDAIAREDFDDLRGELGDLLFQVVFYAQMAQEEGRFDFNDICAAISDKLERRHPHVFADSSAENSSEVLARWEQIKTEERAQKAQHSALDDIPRSLPALMRAQKIQKRCANVGFDWTTLGPVVDKVYEEIDEVMYEARQAVVDQAKLEEEMGDLLFATVNLARHLGTKAEIALQKANEKFERRFREVERIVAARGLEMTGVDLETMEEVWQQVKRQEIDL
MGSDKIHHHHHHMNQVTTYLWETHLPGGSHWSGVVRRGTTLRLTDVSGGANAAVLFYNLEEKLERYNMADTLKTQHTFCLTKGHACHSDMGRIFCCITEDTAGWHDTVCGLSDAELIQQKYGTGRYQELRNDMYRNGLDGMLVELGKWGLGRRDVVSNINFFSKVTANSVGELQFHVSHSKAGDHVDLAFAMDTLVVLSAAPHPLDPAATYRPGAVNLAVFPSTPAVTGACAHIAENARGLENTRRLYAYGGVK
MGSDKIHHHHHHMNRLKKLAWGELFMLGKQGKVRYVFTSSNTAGGYCSFMPELLAGLQKIFILKGPAGTGKSSFLRLLGQSMAEQGYEVEVWLSALNPLNPEGIYLPQMEAAVVNGSLPITIDPGYPAGRAEIINLEDYRDRKAAAEKGRDILELVQRVEKHHSKAYNILKSVIQTREELRQLSARHLDNSKFNQIFQELEARLAEEEVRERHYFANAVTADGIISYIEELSTPCRKRYIFKGPEGCGKSTMIAELARKAAEKGQFLEYYHSGLEPERLLMVIISSSQTALIDIGEMEINLKPCDLLVDLGKCLSDYDCSLLGMKNSQVYRNHEAMLLQVQDELENACLAVKKIKKINASFMDYDSIDKKRMEIEQELGSELSKCFCNGIESGL
